In article PMC6899460, “The Pseudomonas aeruginosa T6SS Delivers a Periplasmic Toxin that Disrupts Bacterial Cell Morphology” (Cell Reports, 2019):

Molecular target: the molecule itself
Experiment: SEC-MALS; SEC-MALLS and refractometry; Superdex 75 10/30 column, 20°C, 0.5 ml/min; fractions pooled from two peaks obtained after preparatory size-exclusion chromatography; dimer and monomer

B1: VgrG2b C-terminal domain (VgrG2bC-ter) (domain or fragment)
chain: VGETQRRFVLKQLDGQTAMPNVPYTITMANGEVIEGVTDAEGATQLLQKDAMNIAKVDMKHTKSPASAVAGIAAAVGAAVAVGKLLGGPDAEAGRALSEGEISLAKGVFGDSIDYSTVRLRDEDYVPWQGKDYVMAPNGHIYFGEELRGVADWSLESLQRQGLFIHEMTHVWQHQHGVNVLLVGAYQQARQFLLGDQYAYRLEPGKTLKDYNIEQQGDIVRDYFLEKNEFGEASANSRFAGVLKNFPTGY
notes: VgrG2b of Pseudomonas aeruginosa PAO1, C-terminal domain, residues 770-1,019; Monomeric and dimeric species were both found in solution; also called VgrG2b metallopeptidase domain; source: E. coli BL21 (λDE3) pET28a-vgrG2bC-ter, purified (Ni2+-NTA, SEC); not shown: His6, C-terminal, cleaved
Question: B1 was tested. Which “stoichiometry N” value did it give?
Answer: 2
